Data set [1] is described as follows: Labelling of the kidney in the same rats (fluorescence microscopy of kidney sections). The data set is classed as in vivo. The settings on record: 200 μg into the jugular vein, 60 minutes, labelling linked to partial elimination of the products. As for the experimental part: Briefly, four rats (300 g each) were anaesthetized, intubated and ventilated. Myocardial ischaemia was triggered by a transient occlusion of the coronary artery. After 30 minutes of occlusion, the coronary artery was reperfused for one hour.
At the end of the reperfusion period, the AFIM-fluorescein peptides of Example 6 were injected into the jugular vein in an amount of 200 μg of peptide for each of two of the rats in a total volume of 1 ml.
By way of comparison, 200 μg of annexin 5-fluorescein (compounds of the prior art) were injected under the same conditions for each of the other two rats in a total volume of 1 ml.
The rats were sacrificed after 60 minutes.
Five organs were stored for this study: the heart, the lung, the kidney, the liver and the brain. They were washed and rinsed in the presence of formalin. […]
A few sections were stained with haematoxylin. The sections were examined under a fluorescence microscope and the adjacent sections stained with haematoxylin were examined with a visible light microscope. The sections stained with haematoxylin (labelled H1 and H2 respectively in the appended FIGS. 1 and 2) allow visualisation of the architecture of the tissues and fluorescence microscopy to detect the labelling with AFIM-fluorescein (AFIM-F) or with annexin 5-fluorescein (A5-F).

For data set [2] the following is noted: prior art observation; cited from earlier work.

Consider “annexin 5: prior art annexin protein that binds anionic phospholipids in a calcium-dependent manner”, for which the “Labelling of the entire renal tissue” value in data set [1] is given as “strongly labelled”. Further, in data set [2], the Toxicity entry is on record as “renal toxicity”.

Source of the values: patent US20060233706A1, “Marked peptides having affinity for a phospholipid and uses” (COMMISSARIAT A L'ENERGIE, priority 2002, published 2006).
